Laboratory results: patent US20140275487A1 (VIB VZW, published 2014)

Biological target: T1, agonist-bound β2AR-356 reconstituted at high density into phospholipid vesicles (UniProt P07550 1-365)
T1 construct: Solid phase coated on Maxisorb plates for ELISA; also called purified receptor alone; reconstituted receptor alone
Experiment: ELISA on purified receptor alone

Row | Binder | binding result
1 | Nanobody 40 (CA4440) (VHH, Tested as periplasmic extract in ELISA; also called Nb40) VHH: QVQLQESGGGLVQAGGSLRLSCAVSGTIFDITPMGWYRQTPGKQREVVADLTSRGTTNYADSVKGRFTISRDNAKKMLYLQMNSLKSDDTGVYYCNVKRWGGIGWNDYWGQGTQVTVSS | no binding
2 | Nanobody 36 (CA4436) (VHH, also called Nb36) VHH: QVQLQESGGGSVQAGGSLRLSCTVSGTIFSVTVMGWYRQAPGKQRELVAGFTNTRNTNYVDSVKGRFTISKDSAKNTMYLQMNSLKPEDTAVYYCNVRRWGGTNWNDYWGQGTQVTVSS | no binding
3 | Nanobody 33 (CA4433) (VHH, Tested as periplasmic extract in ELISA; also called Nb33) VHH: QVQLQESGGGLVQPGGSLRLSCAASGFTFSNYVMNWVRQAPGKGLEWVSDISNGGGTTSYASSVKGRFTISRDNAKNTLYLQMNGLKPADTAVYYCARCPAPFTNDCMDITSTTYAYRGQGTQVTVSS | no binding
4 | Nanobody 41 (CA4441) (VHH, Tested as periplasmic extract in ELISA; also called Nb41) VHH: QVQLQESGGGLVQSGGSLRLSCVASGFRFSNFPMMWVRQAPGKGLEWVSLISIGGSTTNYADSVKGRFTISRDNAKNTLFLQMNSLKPEDTAVYYCAKYLGRLVPPTTEGQGTQVTVSS | no binding
5 | Nanobody 37 (CA4437) (VHH, also called Nb37) VHH: QVQLQESGGGFVQAGGSLRLSCAASGSIFSKNTMAWFRQAPGKERELVAASPTGGSTAYKDSVKGRFTISRDSAKNTVLLQMNVLKPEDTAVYYCHLRQNNRGSWFHYWGQGTQVTVSS | no binding
6 | Nanobody 35 (CA4435) (VHH, Llama VHH raised against the BS2G cross-linked β2AR:Gs:BI167107 complex; expressed in E. coli periplasm; also called Nb35; NB35) VHH: QVQLQESGGGLVQPGGSLRLSCAASGFTFSNYKMNWVRQAPGKGLEWVSDISQSGASISYTGSVKGRFTISRDNAKNTLYLQMNSLKPEDTAVYYCARCPAPFTRDCFDVTSTTYAYRGQGTQVTVSS | no binding
